Target: T1, cyno MUC1-C on stably transfected CHOK1 cells (cyno)
T1 construct: domain: MUC1-C; also called CHOK1-cyno-MUC1-C cells; Monkey MUC1-CT
Assay: FACS, CHOK1-cyno-MUC1-C

| Binder | Emax |
| --- | --- |
| ChiF4-18 (antibody, human IgG1, kappa, V domains shown, murine variable regions on human IgG1 constant regions; also called chimeric antibody of F4-18) VH: EVQLQQSGAELVRPGSSVKMSCKTSGYTFTSYGINWVKQRPGQGLEWIGYIYLGSDYTEYNEKFKGKATLTSDTTSSTAYMQLSSLTSEDSAIYFCARSAGSLFAYWGQGTLVTVSA VL: DIQLTQSPSSLSASLGERVSLTCRASQDIGITLNWLQQEPDGTIKRLIYATSSLDSGVPKRFSGSRSGSDYSLTISSLESEDFVDYYCLQYASSPYTFGGGTKLEIKR | 79800 |
| ChiF4-1 (antibody, human IgG1, kappa, V domains shown, murine variable regions on human IgG1 constant regions; also called chimeric antibody of F4-1) VH: QIQLQQSGPELVKPGASVKISCKASGYTFTDNYINWVKQRPGQGLEYIGWIYPGSGNNKFNEKFKGKATLTVDTSSRTAFMQLSSLTFEDSAVYFCARDYPFPSYHYGMDYWGQGTSVTVSS VL: QILLTQSPAIMSASPGERVTITCSASSSVSYIHWFQQKPGTSPKLWIYSTSNLASGVPPRFSGSGSGTSFSLTVSRMEAEDAATYYCQQRSSYPPTFGGGTKLEIKR | 41700 |
| ChiM4 (antibody, human IgG1, kappa, V domains shown, murine variable regions on human IgG1 constant regions; also called chimeric antibody of M4) VH: QVQLQQSGAELARPGASVKLSCKASGYSFTTYGVPWVKQRTGQGLEWIGDIYPRSGNTYYNEKFKGKATLTADKSSDTVFMELRSLSSEDSAVYFCAREDYDNYPYALDYWGQGTSVTVSS VL: EIVLTQSPAIIAASPGEKVTITCSASSSVFNMNWYQQKPGSSPKIWIYDISKLASGVPGRFSGSGSGTSFSLTINSMEAEDVGTYYCQQRSFYPPTFGGGTKVEIKR | 79500 |

Target: T2, human EGFR-His antigen (human, UniProt P00533 25-645)
T2 construct: also called hEGFR-His
Assay: SPR Biacore 8K, antibody on Protein A chip, 1:1 fit

| Binder | Kd | koff | kon |
| --- | --- | --- | --- |
| ZalH2 (antibody, human IgG1, kappa, V domains shown, anti-EGFR zalutumumab variant, human IgG1) VH: QVQLVESGGGVVQPGRSLRLSCAASGFTFSTYGMHWVRQAPGKGLEWVAVIWEDGSYKYYGDSVKGRFTISRDNSKNTLYLQMNSLRAEDTAVYYCARDGITMVRGVMKDYFDYWGQGTLVTVSS VL: DIQLTQSPSSLSASVGDRVTITCRASQDISSALVWYQQKPGKAPKLLIYDASSLESGVPSRFSGSESGTDFTLTISSLQPEDFATYYCQQFNSYPLTFGGGTKVEIKR | 92.9 nM | 0.00812 s⁻¹ | 87400 M⁻¹ s⁻¹ |
| ZalH3 (antibody, human IgG1, kappa, V domains shown, anti-EGFR zalutumumab variant, human IgG1) VH: QVQLVESGGGVVQPGRSLRLSCAASGFTFSTYGMHWVRQAPGKGLEWVAVIWDDGSYKYYGDSVKGRFTISRDNSKNTLYLQMNSLRAEDTAVYYCARDGLTMVRGVMKDYFDYWGQGTLVTVSS VL: DIQLTQSPSSLSASVGDRVTITCRASQDISSALVWYQQKPGKAPKLLIYDASSLESGVPSRFSGSESGTDFTLTISSLQPEDFATYYCQQFNSYPLTFGGGTKVEIKR | 302 nM | 0.0243 s⁻¹ | 80500 M⁻¹ s⁻¹ |
| ZalH5 (antibody, human IgG1, kappa, V domains shown, anti-EGFR zalutumumab variant, human IgG1) VH: QVQLVESGGGVVQPGRSLRLSCAASGFTFSTYGMHWVRQAPGKGLEWVAVIWDDGSYKYYGDSVKGRFTISRDNSKNTLYLQMNSLRAEDTAVYYCARDGATMVRGVMKDYFDYWGQGTLVTVSS VL: DIQLTQSPSSLSASVGDRVTITCRASQDISSALVWYQQKPGKAPKLLIYDASSLESGVPSRFSGSESGTDFTLTISSLQPEDFATYYCQQFNSYPLTFGGGTKVEIKR | 96.4 nM | 0.0125 s⁻¹ | 129000 M⁻¹ s⁻¹ |
| ZalH7 (antibody, human IgG1, kappa, V domains shown, anti-EGFR zalutumumab variant, human IgG1) VH: QVQLVESGGGVVQPGRSLRLSCAASGFTFSSYGMHWVRQAPGKGLEWVAVIWEDGSYKYYGDSVKGRFTISRDNSKNTLYLQMNSLRAEDTAVYYCARDGITMVRGVMKDYFDYWGQGTLVTVSS VL: DIQLTQSPSSLSASVGDRVTITCRASQDISSALVWYQQKPGKAPKLLIYDASSLESGVPSRFSGSESGTDFTLTISSLQPEDFATYYCQQFNSYPLTFGGGTKVEIKR | 95.7 nM | 0.00761 s⁻¹ | 79500 M⁻¹ s⁻¹ |
| ZalH8 (antibody, human IgG1, kappa, V domains shown, anti-EGFR zalutumumab variant, human IgG1) VH: QVQLVESGGGVVQPGRSLRLSCAASGFTFSSYGMHWVRQAPGKGLEWVAVIWDDGSYKYYGDSVKGRFTISRDNSKNTLYLQMNSLRAEDTAVYYCARDGLTMVRGVMKDYFDYWGQGTLVTVSS VL: DIQLTQSPSSLSASVGDRVTITCRASQDISSALVWYQQKPGKAPKLLIYDASSLESGVPSRFSGSESGTDFTLTISSLQPEDFATYYCQQFNSYPLTFGGGTKVEIKR | 483 nM | 0.0369 s⁻¹ | 76500 M⁻¹ s⁻¹ |
| ZalH9 (antibody, human IgG1, kappa, V domains shown, anti-EGFR zalutumumab variant, human IgG1) VH: QVQLVESGGGVVQPGRSLRLSCAASGFTFSSYGMHWVRQAPGKGLEWVAVIWDDGSYKYYGDSVKGRFTISRDNSKNTLYLQMNSLRAEDTAVYYCARDGVTMVRGVMKDYFDYWGQGTLVTVSS VL: DIQLTQSPSSLSASVGDRVTITCRASQDISSALVWYQQKPGKAPKLLIYDASSLESGVPSRFSGSESGTDFTLTISSLQPEDFATYYCQQFNSYPLTFGGGTKVEIKR | 51.6 nM | 0.00234 s⁻¹ | 45400 M⁻¹ s⁻¹ |
| ZalH10 (antibody, human IgG1, kappa, V domains shown, anti-EGFR zalutumumab variant, human IgG1) VH: QVQLVESGGGVVQPGRSLRLSCAASGFTFSSYGMHWVRQAPGKGLEWVAVIWDDGSYKYYGDSVKGRFTISRDNSKNTLYLQMNSLRAEDTAVYYCARDGATMVRGVMKDYFDYWGQGTLVTVSS VL: DIQLTQSPSSLSASVGDRVTITCRASQDISSALVWYQQKPGKAPKLLIYDASSLESGVPSRFSGSESGTDFTLTISSLQPEDFATYYCQQFNSYPLTFGGGTKVEIKR | 133 nM | 0.0174 s⁻¹ | 131000 M⁻¹ s⁻¹ |
| ZalH12 (antibody, human IgG1, kappa, V domains shown, anti-EGFR zalutumumab variant, human IgG1) VH: QVQLVESGGGVVQPGRSLRLSCAASGFTFSTYGMHWVRQAPGKGLEWVAVIWDDGSNKYYGDSVKGRFTISRDNSKNTLYLQMNSLRAEDTAVYYCARDGITMVRGVMKDYFDYWGQGTLVTVSS VL: DIQLTQSPSSLSASVGDRVTITCRASQDISSALVWYQQKPGKAPKLLIYDASSLESGVPSRFSGSESGTDFTLTISSLQPEDFATYYCQQFNSYPLTFGGGTKVEIKR | 120 nM | 0.0144 s⁻¹ | 120000 M⁻¹ s⁻¹ |
| ZalH13 (antibody, human IgG1, kappa, V domains shown, anti-EGFR zalutumumab variant, human IgG1) VH: QVQLVESGGGVVQPGRSLRLSCAASGFTFSSYAMHWVRQAPGKGLEWVAVIWDDGSYKYYGDSVKGRFTISRDNSKNTLYLQMNSLRAEDTAVYYCARDGITMVRGVMKDYFDYWGQGTLVTVSS VL: DIQLTQSPSSLSASVGDRVTITCRASQDISSALVWYQQKPGKAPKLLIYDASSLESGVPSRFSGSESGTDFTLTISSLQPEDFATYYCQQFNSYPLTFGGGTKVEIKR | 1.96 nM | 0.000187 s⁻¹ | 95500 M⁻¹ s⁻¹ |
| ZalH14 (antibody, human IgG1, kappa, V domains shown, anti-EGFR zalutumumab variant, human IgG1) VH: QVQLVESGGGVVQPGRSLRLSCAASGFTFSTYGMHWVRQAPGKGLEWVAVIWYDGSNKYYADSVKGRFTISRDNSKNTLYLQMNSLRAEDTAVYYCARDGITMVRGVMKDYFDYWGQGTLVTVSS VL: DIQLTQSPSSLSASVGDRVTITCRASQDISSALVWYQQKPGKAPKLLIYDASSLESGVPSRFSGSESGTDFTLTISSLQPEDFATYYCQQFNSYPLTFGGGTKVEIKR | 210 nM | 0.0275 s⁻¹ | 131000 M⁻¹ s⁻¹ |

Target: T2, human EGFR-His antigen
Assay: as above
Remark: another data set of the same source

| Binder | Kd | koff | kon |
| --- | --- | --- | --- |
| M4H1L1-ZalH′ (bispecific antibody, human IgG1, kappa, 1:1 format: MUC1 Fab arm with Fc knob; EGFR arm VH-linker-Titin-Fc hole paired with VL-linker-Obscurin; also called anti-EGFR-MUC1 bispecific antibody) heavy: not shown light: DIQMTQSPSSLSASVGDRVTITCSASSSVFNMNWYQQKPGKSPKLWIYDISKLASGVPSRFSGSGSGTDFTLTISSLQPEDFATYYCQQRSFYPPTFGGGTKVEIKRTVAAPSVFIFPPSDEQLKSGTASVVCLLNNFYPREAKVQWKVDNALQSGNSQESVTEQDSKDSTYSLSSTLTLSKADYEKHKVYACEVTHQGLSSPVTKSFNRGEC chain 1: not shown chain 2: DIQLTQSPSSLSASVGDRVTITCRASQDISSALVWYQQKPGKAPKLLIYDASSLESGVPSRFSGSESGTDFTLTISSLQPEDFATYYCQQFNSYPLTFGGGTKVEIKGGGGSSGAPRFLTRPKASVVSVGKDATLSCQIVGNPFPQVSWEKDKQPVTAGVRFRLAQDGDLYRLKILDLQLSDSGQYVCRARNAHGEAFACLGLQVDAEA | 4.13 nM | 0.00072 s⁻¹ | 174000 M⁻¹ s⁻¹ |
| M4H1L1-ZalH8 (bispecific antibody, human IgG1, kappa, 1:1 format: MUC1 Fab arm with Fc knob; EGFR arm VH-linker-Titin-Fc hole paired with VL-linker-Obscurin; also called anti-EGFR-MUC1 bispecific antibody) heavy: not shown light: DIQMTQSPSSLSASVGDRVTITCSASSSVFNMNWYQQKPGKSPKLWIYDISKLASGVPSRFSGSGSGTDFTLTISSLQPEDFATYYCQQRSFYPPTFGGGTKVEIKRTVAAPSVFIFPPSDEQLKSGTASVVCLLNNFYPREAKVQWKVDNALQSGNSQESVTEQDSKDSTYSLSSTLTLSKADYEKHKVYACEVTHQGLSSPVTKSFNRGEC chain 1: not shown chain 2: DIQLTQSPSSLSASVGDRVTITCRASQDISSALVWYQQKPGKAPKLLIYDASSLESGVPSRFSGSESGTDFTLTISSLQPEDFATYYCQQFNSYPLTFGGGTKVEIKGGGGSSGAPRFLTRPKASVVSVGKDATLSCQIVGNPFPQVSWEKDKQPVTAGVRFRLAQDGDLYRLKILDLQLSDSGQYVCRARNAHGEAFACLGLQVDAEA | 162 nM | 0.0275 s⁻¹ | 171000 M⁻¹ s⁻¹ |
| M4H1L1-ZalH10 (bispecific antibody, human IgG1, kappa, 1:1 format: MUC1 Fab arm with Fc knob; EGFR arm VH-linker-Titin-Fc hole paired with VL-linker-Obscurin; also called anti-EGFR-MUC1 bispecific antibody) heavy: not shown light: DIQMTQSPSSLSASVGDRVTITCSASSSVFNMNWYQQKPGKSPKLWIYDISKLASGVPSRFSGSGSGTDFTLTISSLQPEDFATYYCQQRSFYPPTFGGGTKVEIKRTVAAPSVFIFPPSDEQLKSGTASVVCLLNNFYPREAKVQWKVDNALQSGNSQESVTEQDSKDSTYSLSSTLTLSKADYEKHKVYACEVTHQGLSSPVTKSFNRGEC chain 1: not shown chain 2: DIQLTQSPSSLSASVGDRVTITCRASQDISSALVWYQQKPGKAPKLLIYDASSLESGVPSRFSGSESGTDFTLTISSLQPEDFATYYCQQFNSYPLTFGGGTKVEIKGGGGSSGAPRFLTRPKASVVSVGKDATLSCQIVGNPFPQVSWEKDKQPVTAGVRFRLAQDGDLYRLKILDLQLSDSGQYVCRARNAHGEAFACLGLQVDAEA | 56.4 nM | 0.0113 s⁻¹ | 201000 M⁻¹ s⁻¹ |
| M4H1L1-ZalH13 (bispecific antibody, human IgG1, kappa, 1:1 format: MUC1 Fab arm with Fc knob; EGFR arm VH-linker-Titin-Fc hole paired with VL-linker-Obscurin; also called anti-EGFR-MUC1 bispecific antibody) heavy: not shown light: DIQMTQSPSSLSASVGDRVTITCSASSSVFNMNWYQQKPGKSPKLWIYDISKLASGVPSRFSGSGSGTDFTLTISSLQPEDFATYYCQQRSFYPPTFGGGTKVEIKRTVAAPSVFIFPPSDEQLKSGTASVVCLLNNFYPREAKVQWKVDNALQSGNSQESVTEQDSKDSTYSLSSTLTLSKADYEKHKVYACEVTHQGLSSPVTKSFNRGEC chain 1: not shown chain 2: DIQLTQSPSSLSASVGDRVTITCRASQDISSALVWYQQKPGKAPKLLIYDASSLESGVPSRFSGSESGTDFTLTISSLQPEDFATYYCQQFNSYPLTFGGGTKVEIKGGGGSSGAPRFLTRPKASVVSVGKDATLSCQIVGNPFPQVSWEKDKQPVTAGVRFRLAQDGDLYRLKILDLQLSDSGQYVCRARNAHGEAFACLGLQVDAEA | 0.163 nM | 4.57e-05 s⁻¹ | 280000 M⁻¹ s⁻¹ |

From patent US20260232830A1 (JIANGSU HENGRUI PHARMACEUTICALS, published 2026)
